Results taken from publication PMC9239988 (Nature Communications, 2022).

Legend:
[1] = target: tick-borne encephalitis virus (TBEV) pr, the pr part of prM (aa 1-88) (tick-borne encephalitis virus strain Neudoerfl); assay: SPR; […] ([…] to 7.8 nM), […], pH 5.5; 1:1 model; […]
[2] = target: the molecule itself; assay: SEC-MALS

Q: Which Kd [1] does the source give for “tick-borne encephalitis virus (TBEV) soluble envelope protein E (sE) (from UniProt P14336 281-680) (domain or fragment)” here?
A: 0.066 to 10 µM

B1: tick-borne encephalitis virus (TBEV) soluble envelope protein E (sE) (domain or fragment)
chain: SRCTHLENRDFVTGTQGTTRVTLVLELGGCVTITAEGKPSMDVWLDAIYQENPAKTREYCLHAKLSDTKVAARCPTMGPATLAEEHQGGTVCKRDQSDRGWGNHCGLFGKGSIVACVKAACEAKKKATGHVYDANKIVYTVKVEPHTGDYVAANETHSGRKTASFTISSEKTILTMGEYGDVSLLCRVASGVDLAQTVILELDKTVEHLPTAWQVHRDWFNDLALPWKHEGAQNWNNAERLVEFGAPHAVKMDVYNLGDQTGVLLKALAGVPVAHIEGTKYHLKSGHVTCEVGLEKLKMKGLTYTMCDKTKFTWKRAPTDSGHDTVVMEVTFSGTKPCRIPVRAVAHGSPDVNVAMLITPNPTIENNGGGFIEMQLPPGDNIIYVGELSHQWFQKGSSIG
Q: For B1, which “stoichiometry N” value [2] is on record?
A: 2
